Measurements taken from the DeepSol protein solubility set.

Assay: soluble on expression in E. coli; label from the status in PepcDB or PDB records

| Sequence | soluble on expression in E. coli |
| --- | --- |
| MIFMHPKTLEILKMFEEINKIPRRSKNEEKLALWLMEWAKNHNFEAKTDALNNVLIKVPPTPGYENSPAIVLQGHMDMVCEKCRDSGHDFSKDPIICIYEGDWLRGDGTSIGADNGIALAIGLVLAESGIKGEIEHPPLELLFTVDEETGLTGASGLEEDFFEGRILLNLDSEDEGIFILGCAGGQNSRIFLPLQWESFDYGKGSGFGLFRISAEGLEGGHSGVEIHRQRANGIQLLARMLSALKEKVGKENLRLVFFSGGSVHNAIPNYAEAFIVLSRNNEKQAEDFVSGLQKSFRGEYAVSDPEITLQLKEVENGIIFEASGGKITRKEVPSDRVFSVETEEKLYGVLLGMPHGVHRVSDTIPGLVETSNNLATVRTGEKEVRIVSSQRSSVMSRLAEVTEKVETVAKLAGARVEHECGYPAWEPDLQSGLLMKCRHAYSGTFGKEPEIKVVHAGLECGVIGSKCECIEMISFGPTIKDPHSPAERVYIPSIEKVWVFLENLMKSYRLEHHHHHH | soluble |
| MEDMYDSFAALSASESEYRIIYEEKNGSELIVLGPHGGRIEPGVSELVRAFSDRCSIYLFEGLKQRNNRSLHLTSIRFDEPLALEKVNDHHYALAFHGYYDPKIPHTLVGGADRKKAKLICERLNEAGFSAELTNEKDRLAGVHPNNIVNRTKREMGLQLEVSTAQRNALFRNFGCRDKSYIQNDLFDRYVEAVKLGFYTLEHHHHHH | soluble |
| GPGSMKRHGVRLRRSIKETAVTIGCDEAGRGPLAGPVVGAAVSRIPVSSFNNEFDQLYEAPEQFQIFDSKSVSERQRDLVFAMITGHVDFFDIASCKKFVVHHCAGDEATSLTLSSKKLDSHVKLSKLPFKKLLSMQTPYLITYHGYNSAGNYVYFWSIGIANHTYIDEYNIYNASMNTMHRSAQSIWHMLSDARFSHEAAPRPRSSSIAQYLFSRFCTAANHDNEKRYQVPHHLELLKGATEYFDFEPIQPPLVLIDGHAVPGPSYDYFTSVRIGGDVQPIIEGDKRSLSIAAASCLAKVTRDELMNYIDALYPGYGFRDNKGYPVEQHMKYVAKNGLCPIHRKTYRPCRTVLEKGLQRK | not soluble |
| MGSDKIHHHHHHMQQSKEERVHDVFEKISDKYDVMNSVISFQRHKAWRKETMRIMDVKPGSKALDVCCGTADWTIALAEAVGEQGKVVGLDFSENMLSVGKQKVEALQLKQVELLHGNAMELPFEDNTFDYVTIGFGLRNVPDYMHVLKEMTRVVKPGGKVICLETSQPTMIGFRQGYILYFKYIMPLFGKLFAKSYKEYSWLQESASTFPGMKELANMFEKAGLERVQVKPFTFGVAAMHLGMKPESK | not soluble |
| MSLNTVVTALPYFQERAERVASAINAEFIHYHSGLFSELYRTTQRIVAIMAIGIVIRNIAPLIHDKWTDPAVVVISPDMQYAIPVLGGHHGANDLVYLLQERCGLTPVITTATEATGREAVEVLANREHLRIVNTRSTRQANASVLTGSAKVYRLPGPGMVIAGSGVSFLVADGPYSVGIGCRLGTSADEIVHAIHSACETAGISQEDIAIYATGGIKTHESGLLDAVRTLGRNIIFLNHSDLSEVAPPSQSAASRFGLPGVAEPAALAVSVHHHLILEKQIYGNVTIAIAEEGHHHHHH | not soluble |
| MGSDKIHHHHHHAEEKNLSEQWPVVASYQWAGQDSVVVCDLSLLKDTVDLPFSFFLKDFQIIKLDNRDEAMVGENNLCVSENYILVYGSVYELHPCRLFTKKGEFVTNIGAIGQGPGEYRAVYKAEIDEKHNCIYLMPFANSNAIYVYDLAGKPLRSIPLHQPVSKAVFKVDADKRELTVGALPFTGYPFVAWVQDFEGHLLDSVPAARHLSVLPDYSNEVMYGANTEVFDLYISTFFELRPDTLYHYIRSESRLKPRFTLNIGDRKRSITTFYELPQAYVGRLMVEEQVGDGMWETKSPSNFIVDKASLRGTFFRVINDFAGGMPDRLWTPWSLRNKQYIRLVEPGVLKAEIESYLSSTDGRKGKNRKKLQELCESIGEEDNSYVIYAKQKGVQ | not soluble |
| MRGSHHHHHHTDPALRASVKVIVTDMDGTFLNDAKTYNQPRFMAQYQELKKRGIKFVVASGNQYYQLISFFPELKDEISFVAENGALVYEHGKQLFHGELTRHESRIVIGELLKDKQLNFVACGLQSAYVSENAPEAFVALMAKHYHRLKPVKDYQEIDDVLFKFSLNLPDEQIPLVIDKLHVALDGIMKPVTSGFGFIDLIIPGLHKANGISRLLKRWDLSPQNVVAIGDSGNDAEMLKMARYSFAMGNAAENIKQIARYATDDNNHEGALNVIQAVLDNTSPFNSGLCGR | soluble |
| GPGSMDFVPTVAVIRANPVEGVRYAYTSTVSDNRYDSFVEDAVMQYSGNVNEADGSDRASPRFSGRSVVNLQRAILQCGDIRVSDKQDAEPVGVWRCLAGAILAACCFLRSYSTCPSESFDECGAEVCDAFVPAGVAMIIFSGVCDTRPLSFSEECPFSAAVTAATRLRTAVHVFGPAVVSSALGLRLQALANTTGGIWAPQFALSHVGYLMELAVRRNGQREMDSATNSRRQRELLVERYVVPPACLPQDPAQTGVASGENVSYLAWLCSACLATLVRHPHEEVGAIRMCPYCAASK | not soluble |
| MSLEKSGFIVHQKFDSILQLEDFDSLDRALKESESYYQKLPSNWKTQVRKTSYHKNQMLNSLKILKKILREKNPESRKIQFQNSFLLLETKDEALGRITAYYEVIIEGRFYPEGDFIYPVLETPSDLIVKKDGNKKSVGKIINEVFVPYETREELSHTSVWKKRSKAIVYVKIVDLHLAQLEGSAFVKVPDHIPFRITYSEDNGKEYQSPAESLKGICSSLIPSDLKSCILKYPKEVEMAILKNPRYIFFKLESSAPRGSGGIELIPKRSVAMDPGIPLGIPVLISFESSVLTEKNRIVFVHDRGSQITGHGRLDYFLGTGETAEYQAGKINTQGKIFLILPKIKNEGHHHHHH | soluble |
| SYYHHHHHHDYDIPTTENLYFQGAMGSFGSKDAAADGKPLVVTTIGMIADAVKNIAQGDVHLKGLMGPGVDPHLYTATAGDVEWLGNADLILYNGLHLETKMGEVFSKLRGSRLVVAVSETIPVSQRLSLEEAEFDPHVWFDVKLWSYSVKAVYESLCKLLPGKTREFTQRYQAYQQQLDKLDAYVRRKAQSLPAERRVLVTAHDAFGYFSRAYGFEVKGLQGVSTASEASAHDMQELAAFIAQRKLPAIFIESSIPHKNVEALRDAVQARGHVVQIGGELFSDAMGDAGTSEGTYVGMVTHNIDTIVAALAR | soluble |
| MRLTKQTNYAVRMLMYCAANEGKLSRIPEIARAYGVSELFLFKILQPLNKAGLVETVRGRNGGVRLGKPAEKISLFDVVRVTEDSFAMAECFEDGAVECPLVDSCGLNSALRKALNAFFDVLAEYSIDDLVKARPQINFLLGIDTEMPKIAALPAA | not soluble |
| MNQKYILSANNNSLIEEIHNTVQSIGYCIVRGLNLNHLDGSRRNKKLFDFLSQLGMLTNHKGDGFKSIFWDIKY | not soluble |
| SGRPLEGQPLRALDLYPEPAFLRSGKDPKSSPASSPSFAVLGPEVRSTGGQAGSRRRPSAPCSQDRAAAEGAPALLGGSPSSGSPGHPPGSAFGVEAGCRALNVSEHARGGFALGLPFGLSGGAYLFLLLDGAGDPKPTPEAPISSADGRAWFPSESSWQLPQLPAGSTSGSEPRARPGLGPRQLPTGPRDGAAGQGPGRGLTARLGREREIDCGPRQAGHGGTATDTGRAGSGARHRPPRDRGTPGLRTH | soluble |
| MNVREPEITSVTDLTDKELTQQWKIIDWKRVKEVVNNLQSRIASAAKSGNWKTVNKLSRLLTRSFYAKLLSIRKVTTNKGSRTPGIDGIIWSSSADKMRAALQLTNKGYRAKPLTRKYIRKKSGKLRPLSIPTMYDRAMQTLHSLVLGAIESAAGDKTSFGFKPYRSTKDAYAYLHLCLSKKVSPEWIVEGDIKACFDEISHNWILDNIPIDKRILKEFLKAGYIENYHLFPTEKGTPQGGPISPIIGNMSLNGLENALAMRFYSRSDGTIDKSHQNRRKVNYVRFADDLVVTADSPETALEIIDVIQAFLDPRGLKLSEEKTLVTNISEGFNFLGWNFRKYKGKLLPKPSKDSQKEIIKKIRDVLHKAKAWDQDRLIQTLNPIIRGWAEYHNHAVSSAIFNKLDEIVYNMLISWAKRRHSNKGFTWITTKYWHKSGKRKYVFCTELQTLERFSNAKIVRQRLASLNKNPFIDKEYFEQWKFMEYHRKKRITNPNSVLNLEHHHHHH | not soluble |
| MDEFVKGLMKNGYLITPSAYYLLVGHFNEGKFSLIELIKFAKSRETFIIDDEIANEFLKSIGAEVELPQEIKEGYISTGEGSQKVPDHEELEKITNESSVESSISTGETPKTEELQPTLDILEEEIGDIEGGESSISTGDEVPEVENNNGGTVVVFDKYGYPFTYVPEEIEEELEEYPKYEDVTIEINPNLEVVPIEKDYEIKFDVRRVKLKPPKVKSGSGKEGEIIVEAYASLFRSRLRKLRRILRENPEVSNVIDIKKLKYVKGDEEVTIIGLVNSKKETSKGLIFEVEDQTDRVKVFLPKDSEDYREALKVLPDAVVAFKGVYSKRGIFFANRFYLPDVPLYRKQKPPLEEKVYAVLTSDIHVGSKEFCEKAFIKFLEWLNGYVESKEEEEIVSRIRYLIIAGDVVDGIGIYPGQYSDLIIPDIFDQYEALANLLSNVPKHITIFIGPGNHDAARPAIPQPEFYEEYAKPLYKLKNTVIISNPAVIRLHGRDFLIAHGRGIEDVVSFVPGLTHHKPGLPMVELLKMRHLAPTFGGKVPIAPDPEDLLVIEEVPDLVQMGHVHVYDTAVYRGVQLVNSATWQAQTEFQKMVNIVPTPGLVPIVDVESARVIKVLDFSRWC | soluble |
| DCEKEGEVQWFALPVVLVSGCKKERAIEMKLPTEALFACLQNYPHLRALTQETQWLPYLVHSSDLSAVAPDEWWRAKQNTEAAAQHLRRFAPRPLLLPEGQSVHVVYALGFGSGKVQTALGQNLLQAGLPLMQVWQENLASEGVTLFANPLSPDSPVRALSDGSHTRQRMAMDVFAANAIRAVRMQSPR | not soluble |
| RPAVFPRMGVLPARVALLGQGQHWGVDFCLNVFRANFAEDREIQSEDVVRDLLRAQDLDADALIAQARQESTKEALRKQVDRARALGIFGAPTFMVDGEMFWGNDRLED | not soluble |
| MSLERAKNSDLLRESLTTEELLLISNFAKKKGADSVFFKIIEKLDLKFRLSSFGLEVKNFLMKSKLTGDELTKLTPEILKNKTYENKKFRAYNIHIPSAKTFIGRANSYLDYISKIKDKLVGLGFQEFDGPLVETEFFNNDALFMPQFHPSRDIKDVYYISDPSMQESLPEPYFSNVKLAHETGYATGSRGWRYSFSEDLSKRLVLRTHGTVLSAKQLINAKNPSRYFGVIRCFRYDQVDATHGVDFYQTEGIVIEDGVSIKTLLGLLEIFAKELAGATEIKYVPAYFPFTEPSIEIHVKHPVLGWFELGGSGIFRPEVTKPLGIDLPVIAWGIGIDRMALMHLGLNDLRDLFTYDIGDVILRRGKIDAKVRNEGHHHHHH | not soluble |
| MEVQSMLLNDVKWEKPVTISLQNGAPRIFNGVYEAFDFLQHEWPARGDRAHEQALRLCRASLMGDVAGEIARTAFVAASRQAHCLMEDKAEAPNTIASGS | soluble |
